Biological target: SpyCatcher-fused ferritin protein (Streptococcus pyogenes | not stated)
Assay: SDS-PAGE of the covalent SpyTag/SpyCatcher adduct

6 × His-SpyTag-AE2F SOSIP.664
percent of input conjugated: 80 to 90%
